Data reported in paper PMC11082164.

Biological target: recombinant human full-length BIN1 isoform 8 (human)

recombinant ezrin wild-type (from UniProt P15311 1-586) (natural protein)
relative membrane binding of Alexa488-ezrin on supported lipid bilayers with 5% PI(4,5)P2 in the presence of 0.1 µM BIN1 iso8, normalized to ezrin without BIN1 (confocal intensity): 2.5 fold

recombinant ezrin T567D (from UniProt P15311 1-586) (natural protein)
relative membrane binding of Alexa488-ezrin-T567D on supported lipid bilayers with 5% PI(4,5)P2 in the presence of 0.1 µM BIN1 iso8, normalized to ezrin-T567D without BIN1 (confocal intensity): 1.5 fold
